Experiments:
[1] = target: T1, CT21 (human); assay: competition ELISA; antibody pre-incubated with peptide, then on coated CT antigen
T1 sequence (peptide, C-terminal amide (-NH2)): HTFPQTAIGVGAP

[2] = target: T2, CT22 (human); assay: as above
T2 sequence (peptide, C-terminal amide (-NH2)): QTAIGVGAP

[3] = target: T3, CT23 (human); assay: as above
T3 sequence (peptide, C-terminal amide (-NH2)): IGVGAP

[4] = target: CT24 (human); assay: as above
[5] = target: T4, CT25 (human); assay: as above
T4 sequence (peptide, C-terminal amide (-NH2)): VGAP

[6] = target: CT26 (human); assay: as above
[7] = target: T5, CT43 (human); assay: competition ELISA; antibody pre-incubated with alanine-mutant peptide, then on coated CT antigen
T5 sequence (peptide, C-terminal amide (-NH2)): ATAIGVGAP

[8] = target: T6, CT44 (human); assay: as above
T6 sequence (peptide, C-terminal amide (-NH2)): QAAIGVGAP

[9] = target: T7, CT45 (human); assay: as above
T7 sequence (peptide, C-terminal amide (-NH2)): QTAAGVGAP

[10] = target: T8, CT46 (human); assay: as above
T8 sequence (peptide, C-terminal amide (-NH2)): QTAIAVGAP

[11] = target: T9, CT47 (human); assay: as above
T9 sequence (peptide, C-terminal amide (-NH2)): QTAIGAGAP

[12] = target: T10, CT48 (human); assay: as above
T10 sequence (peptide, C-terminal amide (-NH2)): QTAIGVAAP

[13] = target: T11, CT49 (human); assay: as above
T11 sequence (peptide, C-terminal amide (-NH2)): QTAIGVGAA

[14] = target: T12, CT1 (human); assay: competition ELISA; antibody pre-incubated with peptide, then on coated CT antigen
T12 sequence (peptide): CGNLSTCMLGTYTQDF

[15] = target: T13, CT10 (human); assay: as above
T13 sequence (peptide): QDFNKFHTFPQ

[16] = target: T14, CT11 (human); assay: as above
T14 sequence (peptide): DFNKFH

[17] = target: T15, CT12 (human); assay: as above
T15 sequence (peptide): DFNKFHT

[18] = target: T16, CT13 (human); assay: as above
T16 sequence (peptide): DFNKFHTF

[19] = target: T17, CT14 (human); assay: as above
T17 sequence (peptide): DFNKFHTFP

[20] = target: T18, CT15 (human); assay: as above
T18 sequence (peptide): DFNKFHTFPQ

[21] = target: T19, CT16 (human); assay: as above
T19 sequence (peptide): FNKF

[22] = target: T20, CT17 (human); assay: as above
T20 sequence (peptide): FNKFH

[23] = target: T21, CT18 (human); assay: as above
T21 sequence (peptide): FNKFHT

[24] = target: T22, CT2 (human); assay: as above
T22 sequence (peptide): LGTYTQDFNKFHTFPQ

[25] = target: T23, CT3 (human); assay: as above
T23 sequence (peptide): NKFHTFPQTAIGVGAP

[26] = target: T24, CT4 (human); assay: as above
T24 sequence (peptide): YTQDFNKFHTFP

[27] = target: T25, CT5 (human); assay: as above
T25 sequence (peptide): TQDFNKFHTF

[28] = target: T26, CT6 (human); assay: as above
T26 sequence (peptide): TQDFNKFHTFP

[29] = target: T27, CT7 (human); assay: as above
T27 sequence (peptide): TQDFNKFHTFPQ

[30] = target: T28, CT8 (human); assay: as above
T28 sequence (peptide): QDFNKFHTF

[31] = target: T29, CT9 (human); assay: as above
T29 sequence (peptide): QDFNKFHTFP

[32] = target: T30, WHO国际标准降钙素(Human NIBSC code:89/620) (Human) (UniProt P01258); assay: sandwich chemiluminescence; CT captured by 10B11 magnetic beads, detected by acridinium ester labelled 14D11
T30 sequence (peptide, looked up): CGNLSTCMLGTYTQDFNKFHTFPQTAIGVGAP

B1: 10B11 (antibody, V domains shown)
VH: SDVQLQESGPGLVKPSQSLSLTCTVTGYSITSDYVWNWIRQFPGNKLEWMGYISYSGSTNYNPSLKSRISITRDTSKNQFFLQLNSVTTEDTATYYCAREDWPAWGQ
VL: DIVMTQSQKLMSTSVGDRVSITCKASQNVRSAVAWYQQKPGQSPKTLIYLTSNRHTGVPDRFTGSGSGTDFTLTINNVQSEDLADYFCLQHWNSPLTFGGGTKLEIK
[1]
  competition rate (对照样品OD值-检测样品OD值)/对照样品OD值: 98%
[2]
  competition rate (对照样品OD值-检测样品OD值)/对照样品OD值: 98%
[3]
  competition rate (对照样品OD值-检测样品OD值)/对照样品OD值: 98%
[4]
  competition rate (对照样品OD值-检测样品OD值)/对照样品OD值: 98%
[5]
  competition rate (对照样品OD值-检测样品OD值)/对照样品OD值: 98%
[6]
  competition rate (对照样品OD值-检测样品OD值)/对照样品OD值: 60%
[7]
  competition rate (对照样品OD值-检测样品OD值)/对照样品OD值: 97%
[8]
  competition rate (对照样品OD值-检测样品OD值)/对照样品OD值: 98%
[9]
  competition rate (对照样品OD值-检测样品OD值)/对照样品OD值: 97%
[10]
  competition rate (对照样品OD值-检测样品OD值)/对照样品OD值: 92%
[11]
  competition rate (对照样品OD值-检测样品OD值)/对照样品OD值: 85%
[12]
  competition rate (对照样品OD值-检测样品OD值)/对照样品OD值: 62%
[13]
  competition rate (对照样品OD值-检测样品OD值)/对照样品OD值: 56%

B2: 14D11 (antibody, V domains shown)
VH: EVQLQQSGPELVKPGTSVKIFCMTSGYTFTEFTMHWVKKSPGESLEWIGGIFPDNGGSTYNRKFKDKATLTVDRSSRTAYLELRSLTSEDSAVYYCARYYYNGRAYGIYAMDYWGQGTSVTVSS
VL: DVVLTQSPLSLFVSLGDQVSISCRSSQSLVHSNGNTYLHWYQLKTGQSPKLLIYTVSNRFSGVPDRFSGSGSGTDFTLKINRVEAEDLGVYFCSQSKLVPWTFGGGTKLEIK
[14]
  competition rate (对照样品OD值-检测样品OD值)/对照样品OD值: 1%
[15]
  competition rate (对照样品OD值-检测样品OD值)/对照样品OD值: 95%
[16]
  competition rate (对照样品OD值-检测样品OD值)/对照样品OD值: 68%
[17]
  competition rate (对照样品OD值-检测样品OD值)/对照样品OD值: 92%
[18]
  competition rate (对照样品OD值-检测样品OD值)/对照样品OD值: 92%
[19]
  competition rate (对照样品OD值-检测样品OD值)/对照样品OD值: 91%
[20]
  competition rate (对照样品OD值-检测样品OD值)/对照样品OD值: 91%
[21]
  competition rate (对照样品OD值-检测样品OD值)/对照样品OD值: 11%
[22]
  competition rate (对照样品OD值-检测样品OD值)/对照样品OD值: -14%
[23]
  competition rate (对照样品OD值-检测样品OD值)/对照样品OD值: 30%
[24]
  competition rate (对照样品OD值-检测样品OD值)/对照样品OD值: 99%
[25]
  competition rate (对照样品OD值-检测样品OD值)/对照样品OD值: 32%
[26]
  competition rate (对照样品OD值-检测样品OD值)/对照样品OD值: 99%
[27]
  competition rate (对照样品OD值-检测样品OD值)/对照样品OD值: 91%
[28]
  competition rate (对照样品OD值-检测样品OD值)/对照样品OD值: 94%
[29]
  competition rate (对照样品OD值-检测样品OD值)/对照样品OD值: 95%
[30]
  competition rate (对照样品OD值-检测样品OD值)/对照样品OD值: 92%
[31]
  competition rate (对照样品OD值-检测样品OD值)/对照样品OD值: 95%
[32]
  发光值 at CT(WHO) 0.125pg/ml: 1730
  发光值 at CT(WHO) 0.25pg/ml: 2410
  发光值 at CT(WHO) 0.5pg/ml: 4030
  发光值 at CT(WHO) 1pg/ml: 7460
  发光值 at CT(WHO) 2pg/ml: 13600

Reference: patent CN117229395A
